Measurements from US20230285514A1, “STAPLED LACTAM CO-AGONISTS OF THE GLUCAGON AND GLP-1 RECEPTORS” (Merck Sharp & Dohme LLC, priority 2019, published 2023).
*1 amine or outer side, *2 acyl side, *3 side chain or, on linkers, in order; H or OH if unused. Where a SMILES comes first, the peptide text is derived from it. Bridges are numbered along the chain shown (N, C = ends). Where no end group is shown, it is not given here. Side-chain parts run from the residue outwards. [ ]: non-standard residue; d: D form. The star is where a group is joined. γGlu = O=C(O)[C@H](CCC(=O)[*:2])N[*:1]; Met(O2) = CS(=O)(=O)CC[C@H](N)C(=O)O; Palmitoyl = CCCCCCCCCCCCCCCC(=O)*; Nle = CCCC[C@H](N)C(=O)O; Ac4c = NC1(C(=O)O)CCC1; Aib = CC(C)(N)C(=O)O

B1: TP850 (peptide)
peptide: H[Aib]QGTFTSDKSKYLD[Aib]RAAQDFVKWL[Met(O2)]ETK(γGlu)-NH2
modifications: lactam 24-28; not fully specified (residue 10); printed as HUQGTFTSDK(γEγEC16)SKYLDURAAQDFVK*WL2E*TKγE-NH2
B2: TP486 (peptide)
peptide: H[Aib]QGTFTSDKSKYLD[Aib]RAAQDFVEWLMKTK(γGlu)-NH2
modifications: lactam 24-28; not fully specified (residue 10); printed as HUQGTFTSDK(γEγEC16)SKYLDURAAQDFVE*WLMK*TKγE-NH2
B3: TP846 (peptide)
peptide: H[Aib]QGTFTSDKSKYLD[Aib]RAAKDFVEWL[Met(O2)]DTK(γGlu)-NH2
modifications: lactam 20-24; not fully specified (residue 10); printed as HUQGTFTSDK(γEγEC16)SKYLDURAAK*DFVE*WL2DTKγE-NH2
B4: TP707 (peptide)
peptide: H[dS]QGTFTSDKSKYLDARAAKDFVEWLLDT-NH2
modifications: lactam 20-24; not fully specified (residue 10); printed as HsQGTFTSDK(γEγEC16)SKYLDARAAK*DFVE*WLLDT-NH2
B5: TP834 (peptide)
peptide: H[dS]QGTFTSDKSKYLDARAAQDFVKWLLET-NH2
modifications: lactam 24-28; not fully specified (residue 10); printed as HsQGTFTSDK(γEγEC16)SKYLDARAAQDFVK*WLLE*T-NH2
B6: TP836 (peptide)
peptide: H[Aib]QGTFTSDKSKYLDKRAAEDFVQWL[Nle]DT-NH2
modifications: lactam 16-20; not fully specified (residue 10); printed as HUQGTFTSDK(γEγEC16)SKYLDK*RAAE*DFVQWL-Nle-DT-NH2
B7: TP485 (peptide)
peptide: H[dS]QGTFTSDKSKYLDERAAKDFVEWLLDT-NH2
modifications: lactam 20-24; not fully specified (residue 10); printed as HsQGTFTSDK(γEγEC16)SKYLDERAAK*DFVE*WLLDT-NH2
B8: TP484 (peptide)
peptide: HXQGTFTSDXSKYLDERAAEDFVKWLLDT
modifications: s = D-Serine at 2; K10 conjugated to γEγE-C16 fatty acid; E*20 and K*24 cyclized to form a lactam containing ring; C-terminal amide
B9: TP844 (peptide)
peptide: H[Aib]QGTFTSDKSKYLDKRAAEDFVQWL[Met(O2)]DTK(γGlu)-NH2
modifications: lactam 16-20; not fully specified (residue 10); printed as HUQGTFTSDK(γEγEC16)SKYLDK*RAAE*DFVQWL2DTKγE-NH2
B10: TP842 (peptide)
peptide: H[Aib]QGTFTSDKSKYLD[Aib]RAAQDFVKWL[Nle]ET-NH2
modifications: lactam 24-28; not fully specified (residue 10); printed as HUQGTFTSDK(γEγEC16)SKYLDURAAQDFVK*WL-Nle-E*T-NH2
B11: TP710 (peptide)
peptide: H[dS]QGTFTSDKSKYLDAKAAQEFVQWLLDT-NH2
modifications: lactam 17-21; not fully specified (residue 10); printed as HsQGTFTSDK(γEγEC16)SKYLDAK*AAQE*FVQWLLDT-NH2
B12: TP838 (peptide)
peptide: H[Aib]QGTFTSDKSKYLD[Aib]RAAKDFVEWL[Nle]DT-NH2
modifications: lactam 20-24; not fully specified (residue 10); printed as HUQGTFTSDK(γEγEC16)SKYLDURAAK*DFVE*WL-Nle-DT-NH2
B13: Peptide SEQ ID No. 10 (TP706) (peptide)
peptide: H[dS]QGTFTSDKSKYLDKRAAEDFVQWLLDT-NH2
modifications: lactam 16-20; not fully specified (residue 10); printed as HsQGTFTSDK(γEγEC16)SKYLDK*RAAE*DFVQWLLDT-NH2
B14: TP848 (peptide)
peptide: H[Aib]QGTFTSDKSKYLD[Aib]KAAQEFVQWL[Met(O2)]DTK(γGlu)-NH2
modifications: lactam 17-21; not fully specified (residue 10); printed as HUQGTFTSDK(γEγEC16)SKYLDUK*AAQE*FVQWL2DTKγE-NH2
B15: TP840 (peptide)
peptide: H[Aib]QGTFTSDKSKYLD[Aib]KAAQEFVQWL[Nle]DT-NH2
modifications: lactam 17-21; not fully specified (residue 10); printed as HUQGTFTSDK(γEγEC16)SKYLDUK*AAQE*FVQWL-Nle-DT-NH2

target: T1, human GCGR (Homo sapiens, UniProt P47871); test: cAMP activity assay, cells expressing human GCGR; assay type: cell-based; conditions: ratio of human GCGR EC50 to human GLP1R EC50
T1 construct: expressed in transfected cells
T1 sequence (P47871 26-477): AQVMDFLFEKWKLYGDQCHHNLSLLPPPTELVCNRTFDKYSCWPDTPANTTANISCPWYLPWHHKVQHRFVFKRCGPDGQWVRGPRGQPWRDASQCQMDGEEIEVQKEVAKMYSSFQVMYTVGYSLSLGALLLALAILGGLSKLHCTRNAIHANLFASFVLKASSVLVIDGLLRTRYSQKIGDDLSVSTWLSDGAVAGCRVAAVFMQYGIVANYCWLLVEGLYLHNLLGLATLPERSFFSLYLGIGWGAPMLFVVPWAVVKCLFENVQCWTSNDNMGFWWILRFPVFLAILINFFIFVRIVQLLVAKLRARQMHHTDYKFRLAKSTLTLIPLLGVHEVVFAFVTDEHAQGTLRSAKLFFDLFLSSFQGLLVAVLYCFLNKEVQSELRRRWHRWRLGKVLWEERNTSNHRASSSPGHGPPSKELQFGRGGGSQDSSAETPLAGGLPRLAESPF
Method: Activity of the peptides at the Glucagon receptor (GCGR) and GLP-1 receptor (GLP1R) was measured in a cAMP activity assay. Peptides were dissolved in 100% DMSO and serially diluted to generate 10 point titrations. The peptide solutions were then transferred into 384-well assay plates (150 nL/well). Assay ready frozen cells expressing human GLP1R or human GCGR were suspended in growth media consisting of DMEM medium (GIBCO), 10% FBS (GIBCO), 1×NEAA(GIBCO), 1×P/S (GIBCO), 10 ug/ml Blasticidin (GIBCO) and 200 μg/mL Hygromycin (GIBCO). […] The cell suspensions (15 μL) were then added to the assay plates containing the peptide solutions (30,000 cells/well for human GCGR; 10,000 cells/well for human GLP1R). […] Production of cAMP was determined using […] kits (DiscoverX) following manufacturer protocol. The plates were incubated for overnight at room temperature in the dark. Luminescence was measured using an EnVision Multilabel plate reader (Perkin Elmer). Native GLP-1 and Glucagon (Bachem) are used as control peptides.

Molecule	hGCGR/hGLPIR (hTone)
CCCCCCCCCCCCCCCC(=O)N[C@@H](CCC(=O)N[C@@H](CCC(=O)NCCCC[C@H](NC(=O)[C@H](CC(=O)O)NC(=O)[C@H](CO)NC(=O)[C@@H](NC(=O)[C@H](Cc1ccccc1)NC(=O)[C@@H](NC(=O)CNC(=O)[C@H](CCC(N)=O)NC(=O)C(C)(C)NC(=O)[C@@H](N)Cc1c[nH]cn1)[C@@H](C)O)[C@@H](C)O)C(=O)N[C@@H](CO)C(=O)N[C@@H](CCCCN)C(=O)N[C@@H](Cc1ccc(O)cc1)C(=O)N[C@@H](CC(C)C)C(=O)N[C@@H](CC(=O)O)C(=O)NC(C)(C)C(=O)N[C@@H](CCCNC(=N)N)C(=O)N[C@@H](C)C(=O)N[C@@H](C)C(=O)N[C@H]1CCCCNC(=O)CC[C@@H](C(=O)N[C@@H](Cc2c[nH]c3ccccc23)C(=O)N[C@@H](CC(C)C)C(=O)N[C@@H](CCCC)C(=O)N[C@@H](CC(=O)O)C(=O)N[C@H](C(N)=O)[C@@H](C)O)NC(=O)[C@H](C(C)C)NC(=O)[C@H](Cc2ccccc2)NC(=O)[C@H](CC(=O)O)NC1=O)C(=O)O)C(=O)O [SEQ ID NO: 15] (H-H[Aib]QGTFTSDK([γGlu-γGlu-Palmitoyl])SKYLD[Aib]RAAKDFVEWL[Nle]DT-NH2; lactam 20-24; N-terminus assumed)	2.61

target: human GLP-1 receptor (GLP1R) (human, UniProt P43220); test: cell-based or functional assay; conditions: not given

Molecule	GLP1R EC50 human (nM), cAMP activity assay [nM]
B1	0.033
B2	0.29
H[dS]QGTFTSEK([γGlu-γGlu-C16 fatty acid])SKKLD[Aib]RAAQDFVQWLLATK(γGlu)-NH2 (lactam 9-13) [TP115]	1.03
B3	0.147
H[Aib]QGTFTSDKSKYLD[Ac4c]RAAKDFVEWL[Met(O2)]DTK(γGlu)-NH2 (lactam 20-24; not fully specified (residue 10)) [TP859]	0.043
B4	0.17
B5	0.137
B6	0.198
H[Aib]QGTFTSDKSKYLD[Ac4c]KAAQEFVQWL[Met(O2)]DTK(γGlu)-NH2 (lactam 17-21; not fully specified (residue 10)) [TP857]	0.038
B7	0.14
B8	0.12
B9	0.022
B10	0.237
B11	0.07
H[Aib]QGTFTSDKSKYLD[Ac4c]RAAQDFVKWL[Met(O2)]ETK(γGlu)-NH2 (lactam 24-28; not fully specified (residue 10)) [TP861]	0.056
B12	0.259
B13	0.107
B14	0.044
B15	0.17

target: human Glucagon receptor (GCGR) (human, UniProt P47871); test: cell-based or functional assay; conditions: not given

Molecule	GCGR EC50 human (nM), cAMP activity assay [nM]
B1	0.034
B2	0.06
H[dS]QGTFTSEK([γGlu-γGlu-C16 fatty acid])SKKLD[Aib]RAAQDFVQWLLATK(γGlu)-NH2 (lactam 9-13) [TP115]	0.81
B3	0.176
H[Aib]QGTFTSDKSKYLD[Ac4c]RAAKDFVEWL[Met(O2)]DTK(γGlu)-NH2 (lactam 20-24; not fully specified (residue 10)) [TP859]	0.108
B4	0.1
B5	0.077
B6	0.281
H[Aib]QGTFTSDKSKYLD[Ac4c]KAAQEFVQWL[Met(O2)]DTK(γGlu)-NH2 (lactam 17-21; not fully specified (residue 10)) [TP857]	0.092
B7	0.05
B8	0.04
B9	0.046
B10	0.248
B11	0.06
H[Aib]QGTFTSDKSKYLD[Ac4c]RAAQDFVKWL[Met(O2)]ETK(γGlu)-NH2 (lactam 24-28; not fully specified (residue 10)) [TP861]	0.928
B12	0.675
B13	0.089
B14	0.079
B15	0.212
